B1: Far upstream element-binding protein 1, residues 98 to 169; numbered along this chain, Q96AE4 (parent)
chain: RSVMTEEYKVPDGMVGFIIGRGGEQISRIQQESGCKIQIAPDSGGLPERSCMLTGTPESVQSAKRLLDQIVE

± gives the uncertainty stated by the source.

In this series the parent is B1. Kind of series: abundance fitness (aPCA) (normalised: wild type 0, dead -1); higher = more abundant; growth selection in yeast, the domain comes from the species named. The note with it: Homo sapiens.
As for RSVMTEEYKVPDGMVGFIIGRGGEQISRIQQESGCKIQIAPDSGGLPERSCMLTGIPESVQSAKRLLDQIVE [T56I], the abundance fitness is -0.079 ± 0.042.
As for RSVMTEEYKVPDGMVGFIIGRGGEQISRIQQESGCKIQIAPDSGGLPERSCMLTGRPESVQSAKRLLDQIVE [T56R], the figure is -0.058 ± 0.025.
Consider RSVMTEEYKVPDGMVGFIIGRGGEQISRIQQESGCKIQIAPDSGGLPERSCMLTGGPESVQSAKRLLDQIVE [T56G], for which the abundance fitness was -0.091 ± 0.024.
As for RSVMTEEYKVPDGMVGFIIGRGGEQISRIQQESGCKIQIAPDSGGLPERSCMLTGVPESVQSAKRLLDQIVE [T56V], the figure is -0.04 ± 0.026; as for RSVMTEEYKVPDGMVGFIIGRGGEQISRIQQESGCKIQIAPDSGGLPERSCMLTGCPESVQSAKRLLDQIVE [T56C], -0.026 ± 0.037.
With RSVMTEEYKVPDGMVGFIIGRGGEQISRIQQESGCKIQIAPDSGGLPERSCMLTGFPESVQSAKRLLDQIVE [T56F], the abundance fitness is -0.087 ± 0.045.
In the case of RSVMTEEYKVPDGMVGFIIGRGGEQISRIQQESGCKIQIAPDSGGLPERSCMLTGQPESVQSAKRLLDQIVE [T56Q], the abundance fitness was -0.042 ± 0.041.
As to RSVMTEEYKVPDGMVGFIIGRGGEQISRIQQESGCKIQIAPDSGGLPERSCMLTGWPESVQSAKRLLDQIVE [T56W], the abundance fitness was -0.154 ± 0.034.
Turning to RSVMTEEYKVPDGMVGFIIGRGGEQISRIQQESGCKIQIAPDSGGLPERSCMLTGEPESVQSAKRLLDQIVE [T56E], the abundance fitness was -0.036 ± 0.032.
For RSVMTEEYKVPDGMVGFIIGRGGEQISRIQQESGCKIQIAPDSGGLPERSCMLTGKPESVQSAKRLLDQIVE [T56K] the value was -0.027 ± 0.036.
For RSVMTEEYKVPDGMVGFIIGRGGEQISRIQQESGCKIQIAPDSGGLPERSCMLTGNPESVQSAKRLLDQIVE [T56N] the value was -0.03 ± 0.044; for RSVMTEEYKVPDGMVGFIIGRGGEQISRIQQESGCKIQIAPDSGGLPERSCMLTGLPESVQSAKRLLDQIVE [T56L], -0.062 ± 0.028.
As to RSVMTEEYKVPDGMVGFIIGRGGEQISRIQQESGCKIQIAPDSGGLPERSCMLTGAPESVQSAKRLLDQIVE [T56A], the abundance fitness was -0.046 ± 0.029.
As for RSVMTEEYKVPDGMVGFIIGRGGEQISRIQQESGCKIQIAPDSGGLPERSCMLTGSPESVQSAKRLLDQIVE [T56S], the figure is -0.006 ± 0.027; as for RSVMTEEYKVPDGMVGFIIGRGGEQISRIQQESGCKIQIAPDSGGLPERSCMLTGYPESVQSAKRLLDQIVE [T56Y], -0.066 ± 0.056; as for RSVMTEEYKVPDGMVGFIIGRGGEQISRIQQESGCKIQIAPDSGGLPERSCMLTGDPESVQSAKRLLDQIVE [T56D], -0.067 ± 0.037.
For RSVMTEEYKVPDGMVGFIIGRGGEQISRIQQESGCKIQIAPDSGGLPERSCMLIGTPESVQSAKRLLDQIVE [T54I] the value was -0.054 ± 0.043.
Turning to RSVMTEEYKVPDGMVGFIIGRGGEQISRIQQESGCKIQIAPDSGGLPERSCMLVGTPESVQSAKRLLDQIVE [T54V], the abundance fitness was -0.05 ± 0.028.
On to RSVMTEEYKVPDGMVGFIIGRGGEQISRIQQESGCKIQIAPDSGGLPERSCMLEGTPESVQSAKRLLDQIVE [T54E], for which the abundance fitness is -0.028 ± 0.033.
As to RSVMTEEYKVPDGMVGFIIGRGGEQISRIQQESGCKIQIAPDSGGLPERSCMLCGTPESVQSAKRLLDQIVE [T54C], the abundance fitness is -0.085 ± 0.045.
As for RSVMTEEYKVPDGMVGFIIGRGGEQISRIQQESGCKIQIAPDSGGLPERSCMLLGTPESVQSAKRLLDQIVE [T54L], the figure is -0.087 ± 0.029; as for RSVMTEEYKVPDGMVGFIIGRGGEQISRIQQESGCKIQIAPDSGGLPERSCMLSGTPESVQSAKRLLDQIVE [T54S], -0.027 ± 0.029.
Consider RSVMTEEYKVPDGMVGFIIGRGGEQISRIQQESGCKIQIAPDSGGLPERSCMLQGTPESVQSAKRLLDQIVE [T54Q], for which the abundance fitness is -0.067 ± 0.043.
As for RSVMTEEYKVPDGMVGFIIGRGGEQISRIQQESGCKIQIAPDSGGLPERSCMLPGTPESVQSAKRLLDQIVE [T54P], the abundance fitness is -1.23 ± 0.083.
Turning to RSVMTEEYKVPDGMVGFIIGRGGEQISRIQQESGCKIQIAPDSGGLPERSCMLDGTPESVQSAKRLLDQIVE [T54D], the abundance fitness was -0.191 ± 0.045.
As for RSVMTEEYKVPDGMVGFIIGRGGEQISRIQQESGCKIQIAPDSGGLPERSCMLWGTPESVQSAKRLLDQIVE [T54W], the figure is -0.185 ± 0.031; as for RSVMTEEYKVPDGMVGFIIGRGGEQISRIQQESGCKIQIAPDSGGLPERSCMLMGTPESVQSAKRLLDQIVE [T54M], 0 ± 0.038.
For the variant RSVMTEEYKVPDGMVGFIIGRGGEQISRIQQESGCKIQIAPDSGGLPERSCMLGGTPESVQSAKRLLDQIVE [T54G], the abundance fitness is -0.282 ± 0.028.
On to RSVMTEEYKVPDGMVGFIIGRGGEQISRIQQESGCKIQIAPDSGGLPERSCMLYGTPESVQSAKRLLDQIVE [T54Y], for which the abundance fitness was -0.046 ± 0.056.
As for RSVMTEEYKVPDGMVGFIIGRGGEQISRIQQESGCKIQIAPDSGGLPERSCMLAGTPESVQSAKRLLDQIVE [T54A], the figure is -0.081 ± 0.03.
As for RSVMTEEYKVPDGMVGFIIGRGGEQISRIQQESGCKIQIAPDSGGLPERSCMLKGTPESVQSAKRLLDQIVE [T54K], the abundance fitness worked out at 0.01 ± 0.036.
Turning to RSVMTEEYKVPDGMVGFIIGRGGEQISRIQQESGCKIQIAPDSGGLPERSCMLNGTPESVQSAKRLLDQIVE [T54N], the abundance fitness is -0.069 ± 0.05.
RSVMTEEYKVPDGMVGFIIGRGGEQISRIQQESGCKIQIAPDSGGLPERSCMLFGTPESVQSAKRLLDQIVE [T54F]: the abundance fitness was -0.105 ± 0.048.
As for RSVMTEEYKVPDGMVGFIIGRGGEQISRIQQESGCKIQIAPDSGGLPERSCMLHGTPESVQSAKRLLDQIVE [T54H], the figure is -0.056 ± 0.049.
As for RSVMTEEYKVPDGMVGFIIGRGGEQISRIQQESGCKIQIAPDSGGLPERSCMHTGTPESVQSAKRLLDQIVE [L53H], the figure is -0.99 ± 0.13; as for RSVMTEEYKVPDGMVGFIIGRGGEQISRIQQESGCKIQIAPDSGGLPERSCMPTGTPESVQSAKRLLDQIVE [L53P], -1.03 ± 0.093; as for RSVMTEEYKVPDGMVGFIIGRGGEQISRIQQESGCKIQIAPDSGGLPERSCMYTGTPESVQSAKRLLDQIVE [L53Y], -1.67 ± 0.26.

Source of the values: the Human Domainome abundance scans (Beltran et al. 2025).
